The source of these data is the supplement of paper PMC11780869.

For this data set, the system named is Bacillus subtilis. As to the kind of experiment: cleaved RNA product abundance (RNA/gDNA barcode ratio) relative to median wild-type variant (ratio to wild type); higher = more accumulation of the downstream cleavage product. In a few lines: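 In LB at 37°C, B. subtilis cultures went from OD600 0.0003 to 0.3. Their chromosomes held barcoded reporter mRNAs, truncated aprE or tetM, with RNase Y cleavage-site windows mutagenized via oligos at a 9% error rate. Cleaved RNA, chosen by gel, was reverse transcribed and barcode-sequenced alongside genomic DNA barcodes with UMI collapsing, giving a per-construct RNA:gDNA ratio scaled to the median construct with the unmutated site. This scaled ratio is termed cleaved product abundance.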

Setting [1] is: experiment (reporter, strain, medium): exp 2b: truncated aprE reporter, strain BJT200, cleavage site: cggR-gapA (positions -7 to +36 mutated).
Setting [2] is: experiment (reporter, strain, medium): exp 4a: truncated aprE reporter, strain BJT201 with 2% xylose (RNase J1 expressed), cleavage site: cggR-gapA (positions -7 to +36 mutated).
Setting [3] is: experiment (reporter, strain, medium): exp 6: tetM reporter, strain 168, cleavage site: cggR-gapA (positions -7 to +36 mutated).
[4] abbreviates: experiment (reporter, strain, medium): exp 8a: truncated aprE reporter, strain BJT201 with 2% xylose (RNase J1 expressed), cleavage site: glnRA (positions -5 to +31 mutated).

On to “ACAGACGAAGGAGCCGCAAAGAAGTTATTAAGGGATGAATAATCCATTAATATAAATATCTCTCACTTATTTAAA”, for which the “cleaved RNA product abundance” value runs as follows: under setting [1], 0.766; under setting [2], 0.688; under setting [3], 0.984.

With “ACAGACGAAGGAGCCGCAAAGAAGTTATTAAGGGATGAGTAATCCCTCCATATAAATATCTCTCACTTATTTAAA”, the “cleaved RNA product abundance” value under setting [2] was 0.164.

In the case of “ACAGACGAAGGAGCCGCAAAGAAGTAATTAAGGGATGAATAATCCCTCGATATAAATATCTCTCACTTATTTAAA”, the “cleaved RNA product abundance” value amounted to 0.102 under setting [1] and 0.155 under setting [2].

Turning to “CGACATGTCCCGCTTCTTTCATTACTCCGTTAGCAACTGTTTTGCTATATACTTTTACCTTTTAAGAGGAGGAAT”, the “cleaved RNA product abundance” value under setting [4] is 0.592.

For “CGACATGTCCCGCTTCTTTCATTAATCTGTTAGCAACTGTTTGGCTATATACATTTACCTTTTAAGAGGAGGAAT”, under setting [4], the “cleaved RNA product abundance” value was found to be 0.476.

As for “ACAGACGAAGGAGCCGCAAAGAAGTTATTAAGGAATGAATAATCCCTCACTATAAATATCTCTCACTTATTTAAA”, the “cleaved RNA product abundance” value under setting [1] turned out to be 0.0964.

For “ACAGACGAAGGAGCCGCAAAGAATTTATTAAGGGATGAATAATCCCTCAATATAAATAGCTCTCACTTATTTAAA”, under setting [2], the “cleaved RNA product abundance” value worked out at 0.327.

As for “ACAGACGAAGGAGCCGCAAAGAAGTCATTAAGGAATGAATAATCCCTCAATATAAATATCTCTCACTTATTTAAA”, the “cleaved RNA product abundance” value amounted to 0.0849 under setting [1] and 0.139 under setting [2].

“CGACATGTCCCGCTTCTTTCATTAACCCGTTAGCAACTGTTTTGCTATATAAATTTACCTTTTAAGAGGAGGAAT”: the “cleaved RNA product abundance” value under setting [4] amounted to 0.627.

With “CGACATGTCCCGCTTCTTTCATTAATACGTTAGCAACTGTTTTGCTATATAGATTTACCTTTTAAGAGGAGGAAT”, the “cleaved RNA product abundance” value under setting [4] is 0.956.

As to “CGACATGTCCCGCTTCTTTCATTAATCCGTTAACAACTGTTTTGCTATATACATTTGCATTTTAAGAGGAGGAAT”, the “cleaved RNA product abundance” value under setting [4] turned out to be 0.202.

For the sequence “ACAGACGAAGGAGCCGCAAAGAAGTTATTAATGGATGAATAATCCCTAAATATAAATATCTCTCACTTATTTAAA”, the “cleaved RNA product abundance” value under setting [1] amounted to 0.163 and the “cleaved RNA product abundance” value under setting [2] was 0.196.

Regarding “ACAGACGAAGGAGCCGCAAAGAAGTTATTAAGGGATTAATAATCCTTCAATATAAATATCTCTCACTTATTTAAA”, the “cleaved RNA product abundance” value is, setting by setting: under setting [1], 0.431; under setting [2], 0.39.

Consider “ACAGACGAAGGAGCCGCAAAGAATTTATTAAGGGATGAATAATCCCTCAATATAAATATCTCTCACTTATTTAAA”, for which the “cleaved RNA product abundance” value came out at 0.775 under setting [1], 0.743 under setting [2] and 0.623 under setting [3].

As for “CGACATGTCCCGCTTCTTTCATTAATCCGTTAGCAACTGTTTTGCTATAAACTTTTACCTTTTAAGAGGAGGAAT”, under setting [4], the “cleaved RNA product abundance” value came to 0.318.

In the case of “ACAGACGAAGGAGCCGCAAAGAAGTTGTAAAGGGATGAATAATCCCTCAATATAAATATCTCTCACTTATTTAAA”, the “cleaved RNA product abundance” value under setting [1] came to 0.272.

Consider “CGACATGTCCCGCTTCTTTCATTAATCCGTGAGCAACTGTTTTGCTTTATACATTTACCTTTTAAGAGGAGGAAT”, for which, under setting [4], the “cleaved RNA product abundance” value worked out at 0.184.

On to “ACAGACGAAGGAGCCGCAAAGAAGTTATTAAGGGACGAATAATCGCTCAATATAAATATCTCTCACTTATTTAAA”, for which the “cleaved RNA product abundance” value under setting [2] turned out to be 0.0681.

With “ACAGACGAAGGAGCCGCAAACAAGTTAATAAGGGATGAATAATCCCTCAATATAAATATCTCTCACTTATTTAAA”, the “cleaved RNA product abundance” value under setting [2] was 0.274.

In the case of “ACAGACGAAGGAGCCGCAAAGAAGTTATTAAGGGATGAATCATCCCACAATATAAATATCTCTCACTTATTTAAA”, the “cleaved RNA product abundance” value amounted to 0.21 under setting [1] and 0.192 under setting [2].

Turning to “CGACATGTCCCGCTTCTTTCATTAATCCGTTAGCAACAGTTTTGCTATATACATTTTCCTTTTAAGAGGAGGAAT”, under setting [4], the “cleaved RNA product abundance” value came out at 0.423.

As to “ACAGACGAAGGAGCCGCAAAGAAGTTATTAAGGGATGATTAATCCCTCAATTTAAATATCTCTCACTTATTTAAA”, the “cleaved RNA product abundance” value under setting [2] is 0.0965.

With “ACAGACGAAGGAGCCGCAAAGAAGTTATTAAGGGATTAATAATACCTCAATATAAATATCTCTCACTTATTTAAA”, the “cleaved RNA product abundance” value reads like this: under setting [1], 0.139; under setting [2], 0.187.

Take “ACAGACGAAGGAGCCGCAAAGAAGTTATTAAAAGATTAATAATCCCTCAATATAAATATCTCTCACTTATTTAAA”: the “cleaved RNA product abundance” value under setting [1] is 0.104.

Consider “CGACATGTCCCGCTTCTTTCATTAATACGTTAGCAAATGTTTTGCTATATACATTTACCTTTTAAGAGGAGGAAT”, for which the “cleaved RNA product abundance” value under setting [4] turned out to be 1.26.

Turning to “ACAGACGAAGGAGCCGCAAAGAAGTTATTAAGAGATGAATAATCCCTAAATATAAATATCTCTCACTTATTTAAA”, the “cleaved RNA product abundance” value worked out at 0.141 under setting [1], 0.158 under setting [2] and 0.179 under setting [3].

Regarding “ACAGACGAAGGAGCCGCAAAGAAGTTATTAAGGGATGAAAAATACCTCAATATAAATATCTCTCACTTATTTAAA”, the “cleaved RNA product abundance” value by setting is: under setting [1], 0.114; under setting [2], 0.169.

On to “ACAGACGAAGGAGCCGCAAAGAAGTTACTAAGGGATCAATAATCCCTCAATATAAATATCTCTCACTTATTTAAA”, for which the “cleaved RNA product abundance” value under setting [2] was 0.208.

For “CGACATGTCCCGCTTCTTTCATTACTCCGTTAGCAACTGTTTTGCTATATACGTTTACCTTTTAAGAGGAGGAAT”, under setting [4], the “cleaved RNA product abundance” value was found to be 0.332.

On to “CGACATGTCCCGCTTCTTTCATTAATCAGTTAGCAACAGTTTTGCTATATACATTTACCTTTTAAGAGGAGGAAT”, for which the “cleaved RNA product abundance” value under setting [4] turned out to be 0.832.

“CGACATGTCCCGCTTCTTTCATTAAACCGTTAGCAACTGTTTTGCTATATACATTTACCTTTTAAGAGGAGGAAT”: the “cleaved RNA product abundance” value under setting [4] worked out at 0.915.

For “CGACATGTCCCGCTTCTTTCATTAATCCGTTAGAAACTGTATTGCTATATACATTTACCTTTTAAGAGGAGGAAT”, the “cleaved RNA product abundance” value under setting [4] was 0.321.

On to “CGACATGTCCCGCTTCTTTCATTAATCCGTTAGAAACTTTTTTGCTATATACATTTACCTTTTAAGAGGAGGAAT”, for which the “cleaved RNA product abundance” value under setting [4] stood at 0.287.

For “ACAGACGAAGGAGCCGCAAAGAAGTTATTAAGGGATGAATAATCTCTCATTATAAATATCTCTCACTTATTTAAA”, the “cleaved RNA product abundance” value under setting [2] was 0.351.

For the sequence “ACAGACGAAGGAGCCGCAAAGAAGTTATTTAGGGATGAATCATCCCTCAATATAAATATCTCTCACTTATTTAAA”, the “cleaved RNA product abundance” value under setting [2] is 0.542.

As for “ACAGACGAAGGAGCCGCAAAGAAGTTATTAAGGGATGAATGATCCCTCCATATAAATATCTCTCACTTATTTAAA”, the “cleaved RNA product abundance” value under setting [1] was determined as 0.123.

With “ACAGACGAAGGAGCCGCAAAGAAGTTATTAAGGGTTGAATAATACCTCAATATAAATATCTCTCACTTATTTAAA”, the “cleaved RNA product abundance” value reads like this: under setting [1], 0.146; under setting [2], 0.234.

As to “CGACATGTCCCGCTTCTTTCATTAATCCGTGAGCAAGTGTTTTGCTATATACATTTACCTTTTAAGAGGAGGAAT”, under setting [4], the “cleaved RNA product abundance” value came to 0.375.

Turning to “ACAGACGAAGGAGCCGCAAAGAAGTTATTAAGGGTTGAATAATCCCTCAAAATAAATATCTCTCACTTATTTAAA”, under setting [2], the “cleaved RNA product abundance” value is 0.222.

For “ACAGACGAAGGAGCCGCAAAGAAGTTATCAAGGCATGAATAATCCCTCAATATAAATATCTCTCACTTATTTAAA”, the “cleaved RNA product abundance” value under setting [2] stood at 0.0787.

“ACAGACGAAGGAGCCGCAACGAAGTTATTAAGGAATAAATAATCCCTCAATATAAATATCTCTCACTTATTTAAA”: the “cleaved RNA product abundance” value under setting [2] came to 0.0859.
